The chains are these.
B1: r11_951_TrROS_Hall (parent)
chain: KKKYVIKVYFEDTGKEVEIEAESKEEALEAAKRLAEELGLKIKKVEIYP

Data on 53 variants can be found in the MegaScale stability set (Tsuboyama et al. 2023).

The variants in this data set derive from B1. Nature of the data set: folding stability dG (cDNA display proteolysis); higher = more stable. The note with it: PBS, room temperature.
On to KKKYVIKVYFEDTGKEVEIEAESKEKALEAAKRLAEELGLKIKKVEIYP [E26K], for which the “folding stability dG” value came to 4.24 kcal/mol. Consider KKKYVTKVYFEDTGKEVEIEAESKEEALEAAKRLAEELGLKIKKVEIYP [I6T], for which the “folding stability dG” value is 3.59 kcal/mol. The value for KKKYVIKVYFADTGKEVEIEAESKEEALEAAKRLAEELGLKIKKVEIYP [E11A] was 4.58 kcal/mol; that for KKKYVIKVYFDDTGKEVEIEAESKEEALEAAKRLAEELGLKIKKVEIYP [E11D] was 4.5 kcal/mol. The value for KKKYVIKVYFEDTGKEVESEAESKEEALEAAKRLAEELGLKIKKVEIYP [I19S] was 3.56 kcal/mol; that for KKKYVIKVYFEDTGKEVELEAESKEEALEAAKRLAEELGLKIKKVEIYP [I19L] was 4.5 kcal/mol; that for KKKYVIKVYFEDTGKEVEEEAESKEEALEAAKRLAEELGLKIKKVEIYP [I19E] was 3.36 kcal/mol. KKKYVIKVYFEDTGKEVETEAESKEEALEAAKRLAEELGLKIKKVEIYP [I19T]: the “folding stability dG” value was determined as 3.98 kcal/mol. As for KKKYVIKVYFEDTGKEVEIEAESKEEALEAAKRLAEELGLKWKKVEIYP [I42W], the “folding stability dG” value amounted to 4.05 kcal/mol. On to KKKYVIKVYFEDTGKEVEIEAESKEEALEAAKRLAEELGLKRKKVEIYP [I42R], for which the “folding stability dG” value stood at 2.53 kcal/mol. Regarding KKKYVIKVYFEDTGKEVEIEAESKEEALEAAKRLAEELGLKGKKVEIYP [I42G], the “folding stability dG” value worked out at 2.51 kcal/mol. On to KKKYVIKVYFEWTGKEVEIEAESKEEALEAAKRLAEELGLKIKKVEIYP [D12W], for which the “folding stability dG” value stood at 4.75 kcal/mol. The value for KKKYVIKVYFEGTGKEVEIEAESKEEALEAAKRLAEELGLKIKKVEIYP [D12G] was 4.54 kcal/mol; that for KKKYVIKVYFETTGKEVEIEAESKEEALEAAKRLAEELGLKIKKVEIYP [D12T] was 4.5 kcal/mol; that for KKKYVIKVYFEDTGKEMEIEAESKEEALEAAKRLAEELGLKIKKVEIYP [V17M] was 4.28 kcal/mol. In the case of KKKYVIKVYTEDTGKEVEIEAESKEEALEAAKRLAEELGLKIKKVEIYP [F10T], the “folding stability dG” value was found to be 3.32 kcal/mol. For KKKYVIKVYQEDTGKEVEIEAESKEEALEAAKRLAEELGLKIKKVEIYP [F10Q], the “folding stability dG” value was determined as 2.23 kcal/mol.

Take KKKYVIKVYFEDTGKEVEIEAESKEEALEAAKRLAEYLGLKIKKVEIYP [E37Y]: the “folding stability dG” value worked out at 4.82 kcal/mol. As to KKKYVIKVYFEDTGKEVEIEAESKEEALEAAKRLAEQLGLKIKKVEIYP [E37Q], the “folding stability dG” value came to 4.77 kcal/mol.

Turning to KKKYVIKVYFEDTGKEVEIEAESKHEALEAAKRLAEELGLKIKKVEIYP [E25H], the “folding stability dG” value came out at 4.39 kcal/mol.

KKKYVIKVYFEDTGKEVEIEAESKIEALEAAKRLAEELGLKIKKVEIYP [E25I]: the “folding stability dG” value turned out to be 4.27 kcal/mol. For KKKYVIKVYFEDTGKEVEIEAESKEEAYEAAKRLAEELGLKIKKVEIYP [L28Y], the “folding stability dG” value amounted to 4.57 kcal/mol.

For KKKYVIKVYFEDTGKEVEIEAESKEEATEAAKRLAEELGLKIKKVEIYP [L28T], the “folding stability dG” value came out at 4.16 kcal/mol. For KKKYVIKVYFEDTGKEVEIEAESKEEALEAAKRLAEELGYKIKKVEIYP [L40Y], the “folding stability dG” value turned out to be 4.88 kcal/mol.

As for KKNYVIKVYFEDTGKEVEIEAESKEEALEAAKRLAEELGLKIKKVEIYP [K3N], the “folding stability dG” value was 4.11 kcal/mol.

Regarding KKWYVIKVYFEDTGKEVEIEAESKEEALEAAKRLAEELGLKIKKVEIYP [K3W], the “folding stability dG” value was 4.83 kcal/mol. The value for KKDYVIKVYFEDTGKEVEIEAESKEEALEAAKRLAEELGLKIKKVEIYP [K3D] was 3.86 kcal/mol; that for KKRYVIKVYFEDTGKEVEIEAESKEEALEAAKRLAEELGLKIKKVEIYP [K3R] was 4.26 kcal/mol. To KKIYVIKVYFEDTGKEVEIEAESKEEALEAAKRLAEELGLKIKKVEIYP [K3I] belongs 4.27 kcal/mol; to KKKYVIKVYFEDTGKEVEIEQESKEEALEAAKRLAEELGLKIKKVEIYP [A21Q], 3.77 kcal/mol.

Turning to KKKYVIKVYFEDTGKEVEIECESKEEALEAAKRLAEELGLKIKKVEIYP [A21C], the “folding stability dG” value came to 4.07 kcal/mol. To KKKYVIKVYFEDTGKEVEIEWESKEEALEAAKRLAEELGLKIKKVEIYP [A21W] belongs 3.72 kcal/mol; to KKKYVIKVYFEDTGKEVEIEAESKEEALQAAKRLAEELGLKIKKVEIYP [E29Q], 4.22 kcal/mol.

As to KKKYVIKVYFEDTGKEVEIEAESKEEALVAAKRLAEELGLKIKKVEIYP [E29V], the “folding stability dG” value worked out at 4.53 kcal/mol.

Consider KKKYVIKVYFEDTGKEVEIEAESKEEALRAAKRLAEELGLKIKKVEIYP [E29R], for which the “folding stability dG” value is 4.64 kcal/mol. The value for KKKYVIKVYFEDTGKEVEIEAESKEEALEAYKRLAEELGLKIKKVEIYP [A31Y] was 4.33 kcal/mol. As to KKKYVIKVYFEDTGKEVEIEAESKEEALEAAKRLAEELGLKIKKDEIYP [V45D], the “folding stability dG” value is 2.62 kcal/mol.

With KKKYVIKVYFEDTGKEVEIEAESKEEALEAAKRLAEELGLKIKKWEIYP [V45W], the “folding stability dG” value turned out to be 4.59 kcal/mol. For KKKYVIKVYFEDTGKEVEIEAESKEEALEAAKRLAEELGLKIKKVEIYS [P49S], the “folding stability dG” value was determined as 4.62 kcal/mol. Consider KKKYVIKVYFEDTGKEVEIEAESKEEALEAAKRLAEELGLKIKKVEIYQ [P49Q], for which the “folding stability dG” value was 4.71 kcal/mol. Consider KKKYVIKVYFEDTGKEVEIEAESKEEALEAAKRLAEELGLKIKKVEIYN [P49N], for which the “folding stability dG” value was 4.68 kcal/mol. The value for KKKYVIKVYFEDTGKYVEIEAESKEEALEAAKRLAEELGLKIKKVEIYP [E16Y] was 4.45 kcal/mol. Take KKKYVIKVYFEDTGKRVEIEAESKEEALEAAKRLAEELGLKIKKVEIYP [E16R]: the “folding stability dG” value amounted to 4.22 kcal/mol. To KKKYVIKVYFEDTAKEVEIEAESKEEALEAAKRLAEELGLKIKKVEIYP [G14A] belongs 4.34 kcal/mol; to KKKYVIKVYFEDTNKEVEIEAESKEEALEAAKRLAEELGLKIKKVEIYP [G14N], 4.43 kcal/mol. As for KKKYVIKVYFEDTGKEVEIEAESKEEALEAAKRLAAELGLKIKKVEIYP [E36A], the “folding stability dG” value was determined as 4.62 kcal/mol. The value for KKKYVIKVYFEDTGKEVEIEAESKEEALEAAKRLAQELGLKIKKVEIYP [E36Q] was 4.66 kcal/mol; that for KKKYVIKVYFEDTGKEVEIEAESKEEALEAAKRLAGELGLKIKKVEIYP [E36G] was 4.6 kcal/mol. To KKKYVIKVYFEDTGKEVEIEAESAEEALEAAKRLAEELGLKIKKVEIYP [K24A] belongs 4.55 kcal/mol.

As to KKKYVIKVYFEDTGKEVEIEAESMEEALEAAKRLAEELGLKIKKVEIYP [K24M], the “folding stability dG” value was 4.46 kcal/mol. To KKKYVIKVYFEDTGKEVEIEAESVEEALEAAKRLAEELGLKIKKVEIYP [K24V] belongs 4.6 kcal/mol.

For KKKYVIKVYFEDTGKEVEIEAESEEEALEAAKRLAEELGLKIKKVEIYP [K24E], the “folding stability dG” value was found to be 4.54 kcal/mol. Take KKKYMIKVYFEDTGKEVEIEAESKEEALEAAKRLAEELGLKIKKVEIYP [V5M]: the “folding stability dG” value worked out at 4.31 kcal/mol.
